# Target: host cell proteins
# Test: microtiter plate column chromatography, Bradford assay; fraction of injected protein bound
substance,measurement,value
rProtein A Sepharose FF (from UniProt P38507 37-327),Bound,0%
